From US20250262271A1 (ARIZONA BOARD OF REGENTS ON BEHALF OF THE UNIVERSITY OF …, published 2025)

Target: T1, Kog1-FLAG (Saccharomyces cerevisiae, UniProt P38873 1-1557)
T1 construct: Bait of the TORC1 immunopurifications; also called TORC1 subunit Kog1/Raptor with FLAG tag; TORC1 (as purified through Kog1-FLAG); not shown: FLAG tag
Experiment: co-immunopurification after DSP crosslinking, Western blot; long term amino acid and glucose starvation

T1 sequence (P38873 whole entry): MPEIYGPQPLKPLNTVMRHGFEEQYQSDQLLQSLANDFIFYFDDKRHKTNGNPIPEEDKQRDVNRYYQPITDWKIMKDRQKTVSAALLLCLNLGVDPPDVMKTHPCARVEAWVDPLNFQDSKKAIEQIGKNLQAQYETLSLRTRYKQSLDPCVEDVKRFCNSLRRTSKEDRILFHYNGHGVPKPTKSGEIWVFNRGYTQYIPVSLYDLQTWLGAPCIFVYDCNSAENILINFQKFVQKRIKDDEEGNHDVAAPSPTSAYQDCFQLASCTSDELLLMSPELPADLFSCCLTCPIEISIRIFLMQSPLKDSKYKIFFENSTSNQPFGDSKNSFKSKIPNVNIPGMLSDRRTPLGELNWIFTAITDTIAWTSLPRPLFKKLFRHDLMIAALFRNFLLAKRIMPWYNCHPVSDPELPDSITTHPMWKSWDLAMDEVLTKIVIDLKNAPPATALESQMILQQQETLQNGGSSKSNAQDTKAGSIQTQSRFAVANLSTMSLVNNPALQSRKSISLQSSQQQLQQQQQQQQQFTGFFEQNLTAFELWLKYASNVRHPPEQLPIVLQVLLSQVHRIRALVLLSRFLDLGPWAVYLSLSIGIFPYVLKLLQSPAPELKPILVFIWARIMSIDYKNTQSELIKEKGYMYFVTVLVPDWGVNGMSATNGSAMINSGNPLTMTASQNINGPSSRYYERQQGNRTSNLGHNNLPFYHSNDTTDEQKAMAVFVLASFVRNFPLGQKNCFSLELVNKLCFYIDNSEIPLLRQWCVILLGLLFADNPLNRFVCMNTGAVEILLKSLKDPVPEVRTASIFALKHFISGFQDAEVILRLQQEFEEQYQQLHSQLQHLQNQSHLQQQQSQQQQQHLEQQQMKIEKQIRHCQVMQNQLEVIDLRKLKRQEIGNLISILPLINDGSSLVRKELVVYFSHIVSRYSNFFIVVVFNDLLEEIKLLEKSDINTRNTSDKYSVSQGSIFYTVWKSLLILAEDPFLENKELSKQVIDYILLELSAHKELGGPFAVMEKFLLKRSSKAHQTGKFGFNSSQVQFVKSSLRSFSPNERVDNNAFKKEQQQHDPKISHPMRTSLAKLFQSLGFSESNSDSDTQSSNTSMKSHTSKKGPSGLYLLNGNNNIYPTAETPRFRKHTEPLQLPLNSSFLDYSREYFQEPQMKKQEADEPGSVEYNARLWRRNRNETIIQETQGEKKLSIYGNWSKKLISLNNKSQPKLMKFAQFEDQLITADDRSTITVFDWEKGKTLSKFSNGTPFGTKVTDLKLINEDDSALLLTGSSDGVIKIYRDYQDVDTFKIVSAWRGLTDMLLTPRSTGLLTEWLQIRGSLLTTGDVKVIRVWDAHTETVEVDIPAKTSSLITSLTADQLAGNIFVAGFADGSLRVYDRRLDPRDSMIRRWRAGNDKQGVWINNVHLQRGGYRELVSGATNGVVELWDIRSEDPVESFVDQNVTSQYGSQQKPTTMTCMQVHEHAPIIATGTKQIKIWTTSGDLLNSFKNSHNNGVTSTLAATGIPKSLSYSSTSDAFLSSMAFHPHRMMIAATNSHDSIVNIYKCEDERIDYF

B1: GFP-Ait1 (other)
chain: MVRLNHAASYFMPIFCSTRPHIVILSALFSISLFSLFYASSELLLHQYDDPLMFKPNSQDYFRTFLLGLFSPFLYYFLKTFLFNINQRFLILNLIVDFPINDVFMLLILIGLAYPQVQDHEGGTIKHKECSWHIIPRQAYIFGISWALGEFTICIIGNLFNYQEIADPNINSGFTHQESANTYCNNNDMSHNDDCGCSTEYRPNVVDRSDITLSKCIEVRNDSSSISNNVYSSEYHPIKPLRSSSSTYGSIRQQPHENKKQLHVPDNSQDDTIIMMNPIDNSLKLTTLDTGDLSFPIDEEQPILKKSFGYTWAVPNENTQNTTKSFTPIKRFIAFSTAYQLVTGLLLMILVVGSNIMLTIGESLILSMYFVYVRGHEGLFTPVVNYFGSRTISNFILCVIIPFISLNFLINTSIYLRRELDDWFNNSQGEFEDDDENTISKRVATNQEYQHPLSANYISMDSPDVINSSPGHFGMNSGQLLGNTTLYYGSLNGDDDDMTNDSALLRFCKKLVKNWRALARNDSFVLGVMVSWSLLVFVTGILSTVYI
notes: Expressed in S. cerevisiae (W303) and immunopurified from DSP-crosslinked, digitonin-treated lysate; also called Ait1-GFP; GFP-tagged Ydl180w; not shown: GFP tag
Q: Which “co-purified amount relative to log phase growth” value does the source give for B1 here?
A: 50%
